The text below walks through data of the nanobody polyreactivity screen of Harvey et al. (2022).

The nature of the series: yeast display, Sf9 membrane polyspecificity reagent, FACS + sequencing; frameworks hold sequencing errors. The method in brief:
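After 36–48 hours of galactose induction, yeast (Saccharomyces cerevisiae BJ5465) displaying a synthetic nanobody library were stained at 4 °C for 1 hour with 10% biotinylated, detergent-solubilized Sf9 membrane reagent. Streptavidin microbeads enriched the stained cells before FACS sorting into low and high (top ~1%) gates on anti-HA and streptavidin fluorescence. Each clone's polyreactivity label reflects its gate of origin.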
With “QLQLVETGGGLVQAGGSLRLSCAASGFTLYSYAMGWYRQDPGKEREFVADGSTYYADSVKGRFTISRDNAKNTVYLQINSLKPEDTAVYYCAADPWIYVQSYGYWGQGTQVTVSS”, the “polyreactivity (PSR sort gate)” value is on record as “low polyreactivity”. Next, “QVQLVESGGGLVQAGGSLRLSCAASGSIFYRNAMGWYRQAPGKERELVAAISWSGSRTYYADSVKGRFTISRDNAKNTVYLQMNSLKPEDTAVYYCNRQYNQWIHYYYRMDYWGQGTQVTVSS”: “high polyreactivity”. The same measure for “QVQLVESGGGLVQAGGSLRLSCAASGRTFDHNAMGWYRQAPGKERELVAAITSRGGSTYYADSVKGRFTISRDIAKYTGYLQMNSLKPEDTAVYYCAARKRSVYGTEYDYLGQGTQVTVSS”: “high polyreactivity”; for “QVQHVESGGGLVQAGGSLRLSCAASGRIFYAYAMGWYRQAPGKERELVASISGGGSTDYADSVKGRFTISRDNAKNTVYLQMNSLKPEDTGVYYCAAQYYLYRSRFDYWGQGTQVTVSS”: “high polyreactivity”; for “QVQLVESGGGLVQAGGSLRLSCAASGFTFHVYAMGWSRQAPGKERELVAAISTGDDTTFYADSVKGRLTISRDNAKNTVYLQMNSLKPEDTAVYYCAAAYGTPYGGYDYWGQGTQVTVSS”: “low polyreactivity”.

Regarding “QVQLVESGGGLVQAGGSLRLSCAASGSIFFWYTMGWYRQAPGKERELVATITGSGSSTTYADSVKGRFTISRDNAKNTVYFQMNSLKPEDTAVYYCAAADIIDHSFPYDYWGQGTQVTVSS”, the “polyreactivity (PSR sort gate)” value is “low polyreactivity”. The same measure for “QVQLVESGGGVVQAGGSLRLSCAASGSTLAGYAMGWYRPAPGKERELVAAIDWTGGSTTYADSVKGRFTISRDYAKNTVYLQMNCLKPDDTAVYSCNVVLGVNGDYWGQGCQVTVSS”: “low polyreactivity”; for “QVQLVESGVGLVQAGGSLRLSCAASGRIFAHNAMGWYRQAPGKERELVAAISTGGSTNYADSVKGRFTISRDNAKNTVYLQMNSLKPEDTAVYYCARDAYLPRIADGDGRYELVDYWGQGTQVTVSS”: “low polyreactivity”; for “QVQLVESGGGLVQAGGSLRLSCAASGFIFQPYALGWYRQAPGKERELDASITLRGGSTYYADSVKGRFTISRDNAKNTVYLQMNSLKPEDTAVYYCAARIYQYWGGHYDYWGQGTQVTVSS”: “high polyreactivity”. The same measure for “QVQLVESGGGLVLAGGSLRLRCAASGSNFYVNAMGWYRQAPWKEMELVAAISRRGGSTYYADSVKGRFTISRDNAKNTVYLQMNSLKPEDTAVYYCNKAMRGQAPSGPEYDYWGQGTQVTVSS”: “high polyreactivity”; for “QVQLVESGGGLVQAGGSLRLSCAASGRILVRYAMGWYRQAPGKERELVAAISSSGSSTYYADSVKGRFTISRYNAKNTVYLQMNSLKPEDTAVYYCAADWEYVFYEYGYWGQGTQVTVSS”: “low polyreactivity”. Take “QVQLVESGGGLVQAGGSLRLSCAASGRTFIYYAMGWYRQAPGKERELVAGISRNGGRTYYADSVKGRFTISRDNAKNTVYLQMNSLKPEDTAVYYCNAYPPSRHDYWGQGTQVTVSS”: the “polyreactivity (PSR sort gate)” value is “high polyreactivity”.

As for “QVQLVESGGGLVQAGGSLRLSCAASGRIVYLNAMGWYRQPPGKERELVAAINTSGDSTYYADSVKGRFTISRDNAKNTVYLQMNSLKPVDTAVYYCAAYVIGPDQFIYDYWGQGTQVTVSS”, the “polyreactivity (PSR sort gate)” value is “low polyreactivity”. Next, “QVQLVESGGRLVQAGGSLRLSCAASGRTFLVNDMGWYRQAPGKERELVAAINYNAGSTFYADSVKGRFTISRDIAKNTVYLQMNSLKPEDTAVYYCATDVYGYVEYDYWGQGTQVTVSS”: “low polyreactivity”; “QVQLVESGGGLVQAGGSLRLSCAASGSTFYGYTMGWYRQAPGKERELVAVITSGGSTYYADSVKGRFTISRDNAKNTVYLQMNSLKPEDTAVYYCAKRYGYPAYGRPWRIGRTYDYWGQGTQVTVSS”: “low polyreactivity”. The same measure for “QVQHVESGVGLVQAGGSLRLSCAASGRIFRWNAMGWYRQAPGKERELVAAISWNGGRTYYADSVKGRFTISRDNAKNTVYLQMNSLKPEDTAVYYCAAPHCVPDLHSGDYWGLGTQVTVSS”: “low polyreactivity”; for “QDQLVESGVGLDQAGVSLRLSCAASGRTFKGNAMGWYSQATGKESELVAVITGSGGSTYYADSVKGRFTISRDNAKNTVYLQMTSLKPEDTAVYYCNKTLQRRSWYDYWGQGTQVTVSS”: “low polyreactivity”; for “QVQLVESGGGLVQAGGSLRLSCAASGYTFSWYAMGWYRQAPRKERELVAGIDTSGGSTYYADSVKGRFTISRDNAKNTVYLQMNSLKPEDTAVYYCAAGLLWYSWGFWYYEYGYWGQGTQVTVSS”: “low polyreactivity”. On to “QLKLVESGGGLVQAGASLRLSCAASGSIFYGYTMGWYRQAPGKERELVAGISTYYADSVKGRFTISRDNAKNTVYLQMNSLKPEDTEVYYCAADYSSTTSEYDYWGQGTQVTVSS”, for which the “polyreactivity (PSR sort gate)” value is on record as “low polyreactivity”. Next, “QVQLVESGGGLVQAGGSLRLSCAASGRIFGYNAMGWYIQAPGKERELVAVITYSGGSTYYADSVKGRFTISRDNAKNTVYLQMNSLKPEDTAVYYCNARPIDRYSGSGKQWPDYNYWGQGTQVTVSS”: “low polyreactivity”; “QVQLVESGGGLVQAGGSLRLSCAASGIIFAIYAMGWYRQAPGKESELVAAITWRGGSTYYADSVKGRFTISRDNAKNTVYLQRNSLKPEDTAVYYCDAVTKSLYGYDYWGQGSQVTVSS”: “low polyreactivity”. The same measure for “QVQLVESGGGLVQAGGSLRLSCAASGSTFWLYAMGWYRQAPGKERELVASISSRGGSTYYADSVKGRFTISRDNAKNTVYLQMNSLKPEDTAVYYCAAKDIRYDDDYWGQGTQVTVSS”: “low polyreactivity”. The same measure for “QVQLVESGGGLVQAGGSLRLSCAASGRTFRANTMGWYRQAPGKERELVAAISHSGGSTYYADSVKGRFTISRDNAKYTVYLQMISLKPEDTAVYYCATDGGSYSWASPRVDYWGQGTQVTVSS”: “low polyreactivity”. Regarding “QVQLVESGGGLVQAGGSLRLSCAASGRIFTHNAMGWYRQAPGKERELVAAITSGGRTTYADSVKGRFTISRDNAKNTVYFQMNSLKPEDTAVYYCNADTGLGSLDFDKRDYWGQGTQVTVSS”, the “polyreactivity (PSR sort gate)” value was “low polyreactivity”.

With “QVQLVESGGGLVQAGGSLRLSCAASGRSFTPYARGWYRQAPGKERELVAAISTIGGTTYADSVKGRFTISRDNAKNTVYLQRNSLKPEDTAVYYCAAERPPYPGNGRDYWGQGTQVTVSS”, the “polyreactivity (PSR sort gate)” value is reported as “high polyreactivity”. With “QVQLVESGGGLVQAGGSLRLSCAASGSTLYSYAMGWYRQAPGKERELVAAIRRDSGRTYYADSVKGRFTISRDNEKNTVYLQMNSLKPEDTAVYYCAAAYRLGYHKYYYWGQGTQVTVSS”, the “polyreactivity (PSR sort gate)” value is given as “high polyreactivity”. Next, “QVQLVESGGGLVQAGGSLRLSCAASGFTLDQYAMGWYRQAPGKERELVAVITSGGNTYYADSVKGRFTISRDNAKNTVYLQMNSLKPEDTAVYYCAKDVSDPFYDPFEYWGQGTQVTVSS”: “low polyreactivity”; “QDQLVQSGGGLVQAGGSLRLSCDASGGMFDSNAMGRYRQPPGKERELVAAISDSGGSTYYADSVKGRFTISRDNAKNTVYLQMNSLKPEDTAVYYCAGDSDYHFVNYRFGMDYWGQGTQVTVSS”: “low polyreactivity”. As for “QVQLVESGGGLVQAGGSLRLSCPASGFNFPYYAKGWYRQAPGKEREFVAAISSGGNTNYADSVKGRFTISRDNAKNTVYLQMNSLKPEDTAVFYCAAGFLRYLNWSVKYDYWGQGTQVTVSS”, the “polyreactivity (PSR sort gate)” value is on record as “low polyreactivity”. Consider “QVQLVESAARLVQAGGSLRLSCAPSGNIFKGYAMGCYRQAPGKHRELVAAITSGDSTNYADSVKGRFTISRDNAKNTVYLQMNSLKPEDTGVYYCNARYSWWRSRDGSSHRPDGYWGQGTQVTVSS”, for which the “polyreactivity (PSR sort gate)” value is listed as “high polyreactivity”.
